From the supplement of paper PMC10065799, “High-throughput profiling of sequence recognition by tyrosine kinases and SH2 domains using bacterial peptide display” (eLife, 2023)

Columns and labels:
[1] = molecular target: SHP2-C SH2; assay: SH2 binding enrichment of the phosphorylated peptide, bacterial display (enrichment ratio); higher = better substrate or ligand; peptides without Tyr show the background
[2] = molecular target: c-Src SH2; assay: as above
[3] = molecular target: Grb2 SH2 (UniProt P62993); assay: as above
[4] = test system: c-Src; assay: phosphorylation enrichment, bacterial display (enrichment ratio); higher = better substrate or ligand; peptides without Tyr show the background
[5] = molecular target: EPHB1 (UniProt P54762); assay: as above
[6] = molecular target: FGFR1 (UniProt P11362); assay: as above
[7] = molecular target: Jak2 (UniProt O60674); assay: as above
[8] = test system: c-Abl (mouse); assay: as above
[9] = molecular target: EPHB2 (UniProt P29323); assay: as above
[10] = molecular target: FGFR3 (UniProt P22607); assay: as above
[11] = test system: AncSZ; assay: as above
[12] = molecular target: Hck (UniProt P08631); assay: as above
[13] = test system: Fer (mouse); assay: as above
[14] = molecular target: Fes (UniProt P07332); assay: as above
[15] = molecular target: Fyn (UniProt P06241); assay: as above
[16] = molecular target: MERTK (UniProt Q12866); assay: as above
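Throughout, for SH2 binding enrichment of the phosphorylated peptide, bacterial display: peptide library displayed on the E. coli surface as eCPX fusions, selected cells deep-sequenced, score is each peptide's frequency after selection divided by its frequency in the input.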
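Throughout, for phosphorylation enrichment, bacterial display: 11-residue human phosphosite peptides and single-mutation variants displayed on the E. coli surface, counted by deep sequencing, each peptide's frequency after selection divided by its frequency in the unselected input library; frequency after pTyr selection over input frequency; kinase dosed for 20-30% of maximal phosphorylation in three min.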

Sequence of MERTK (Q12866 whole entry, looked up, the tested form may be a part): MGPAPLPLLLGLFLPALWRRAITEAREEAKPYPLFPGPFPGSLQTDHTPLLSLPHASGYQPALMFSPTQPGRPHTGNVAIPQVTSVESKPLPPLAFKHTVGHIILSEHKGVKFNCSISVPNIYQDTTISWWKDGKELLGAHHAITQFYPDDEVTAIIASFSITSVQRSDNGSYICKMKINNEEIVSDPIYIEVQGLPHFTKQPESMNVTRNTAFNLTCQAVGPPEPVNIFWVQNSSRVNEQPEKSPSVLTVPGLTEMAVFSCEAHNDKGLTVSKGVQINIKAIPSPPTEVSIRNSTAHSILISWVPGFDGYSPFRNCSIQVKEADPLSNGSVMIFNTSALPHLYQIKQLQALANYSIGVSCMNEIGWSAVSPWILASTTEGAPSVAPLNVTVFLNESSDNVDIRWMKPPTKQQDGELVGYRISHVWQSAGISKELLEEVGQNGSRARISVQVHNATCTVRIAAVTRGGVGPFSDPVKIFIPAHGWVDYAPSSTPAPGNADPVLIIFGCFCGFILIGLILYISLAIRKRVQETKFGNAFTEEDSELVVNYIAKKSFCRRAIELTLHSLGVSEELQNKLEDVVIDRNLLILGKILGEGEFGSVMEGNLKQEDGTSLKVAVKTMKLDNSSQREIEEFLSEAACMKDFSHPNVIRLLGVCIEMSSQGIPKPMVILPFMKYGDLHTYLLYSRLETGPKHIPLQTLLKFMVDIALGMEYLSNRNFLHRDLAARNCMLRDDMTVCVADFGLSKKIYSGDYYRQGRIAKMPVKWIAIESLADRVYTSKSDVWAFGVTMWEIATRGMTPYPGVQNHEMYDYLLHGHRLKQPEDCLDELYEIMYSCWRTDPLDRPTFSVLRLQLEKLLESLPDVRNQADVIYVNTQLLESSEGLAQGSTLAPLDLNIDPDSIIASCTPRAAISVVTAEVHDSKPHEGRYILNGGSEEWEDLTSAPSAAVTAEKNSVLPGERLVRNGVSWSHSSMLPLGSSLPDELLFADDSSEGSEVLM
Sequence of EPHB1 (P54762 whole entry, looked up): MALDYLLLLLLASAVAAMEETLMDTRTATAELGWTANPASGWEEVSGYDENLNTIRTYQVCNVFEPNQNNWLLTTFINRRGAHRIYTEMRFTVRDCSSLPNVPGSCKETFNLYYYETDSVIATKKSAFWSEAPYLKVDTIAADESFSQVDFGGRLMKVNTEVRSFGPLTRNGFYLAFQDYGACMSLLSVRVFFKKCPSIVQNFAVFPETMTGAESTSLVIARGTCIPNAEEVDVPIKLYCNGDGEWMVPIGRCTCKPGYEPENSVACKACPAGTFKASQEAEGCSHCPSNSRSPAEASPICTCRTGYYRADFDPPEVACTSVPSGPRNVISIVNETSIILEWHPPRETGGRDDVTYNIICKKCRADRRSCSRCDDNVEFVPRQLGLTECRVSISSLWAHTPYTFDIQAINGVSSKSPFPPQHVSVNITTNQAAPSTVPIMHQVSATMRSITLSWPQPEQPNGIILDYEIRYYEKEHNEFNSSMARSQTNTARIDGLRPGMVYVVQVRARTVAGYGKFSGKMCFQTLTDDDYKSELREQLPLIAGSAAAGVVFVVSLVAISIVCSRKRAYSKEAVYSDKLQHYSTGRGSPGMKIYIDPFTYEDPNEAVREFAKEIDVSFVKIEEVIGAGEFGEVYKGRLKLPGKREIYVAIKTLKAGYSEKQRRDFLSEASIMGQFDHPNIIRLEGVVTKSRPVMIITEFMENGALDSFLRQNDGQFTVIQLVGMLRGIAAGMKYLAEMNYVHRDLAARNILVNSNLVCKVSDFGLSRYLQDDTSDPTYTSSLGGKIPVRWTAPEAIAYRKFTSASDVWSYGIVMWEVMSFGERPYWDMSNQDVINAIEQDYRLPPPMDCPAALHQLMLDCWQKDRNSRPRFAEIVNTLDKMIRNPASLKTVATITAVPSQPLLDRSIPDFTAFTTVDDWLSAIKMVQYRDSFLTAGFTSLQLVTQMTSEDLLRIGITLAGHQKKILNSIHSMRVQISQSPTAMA
Sequence of Fyn (P06241 whole entry, looked up): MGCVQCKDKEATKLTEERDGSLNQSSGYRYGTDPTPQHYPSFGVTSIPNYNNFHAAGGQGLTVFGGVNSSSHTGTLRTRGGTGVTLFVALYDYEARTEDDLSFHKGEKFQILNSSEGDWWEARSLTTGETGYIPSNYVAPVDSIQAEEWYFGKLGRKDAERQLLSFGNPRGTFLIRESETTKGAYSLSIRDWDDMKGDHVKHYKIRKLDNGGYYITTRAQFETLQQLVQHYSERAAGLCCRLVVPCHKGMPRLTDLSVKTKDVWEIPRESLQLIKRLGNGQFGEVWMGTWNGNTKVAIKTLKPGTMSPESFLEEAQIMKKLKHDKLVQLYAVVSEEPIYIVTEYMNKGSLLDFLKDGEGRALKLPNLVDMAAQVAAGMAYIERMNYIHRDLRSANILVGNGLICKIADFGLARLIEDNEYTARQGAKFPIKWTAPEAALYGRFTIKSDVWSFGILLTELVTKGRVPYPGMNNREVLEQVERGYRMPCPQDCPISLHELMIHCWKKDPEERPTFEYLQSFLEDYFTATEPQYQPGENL
Sequence of Fes (P07332 whole entry, looked up): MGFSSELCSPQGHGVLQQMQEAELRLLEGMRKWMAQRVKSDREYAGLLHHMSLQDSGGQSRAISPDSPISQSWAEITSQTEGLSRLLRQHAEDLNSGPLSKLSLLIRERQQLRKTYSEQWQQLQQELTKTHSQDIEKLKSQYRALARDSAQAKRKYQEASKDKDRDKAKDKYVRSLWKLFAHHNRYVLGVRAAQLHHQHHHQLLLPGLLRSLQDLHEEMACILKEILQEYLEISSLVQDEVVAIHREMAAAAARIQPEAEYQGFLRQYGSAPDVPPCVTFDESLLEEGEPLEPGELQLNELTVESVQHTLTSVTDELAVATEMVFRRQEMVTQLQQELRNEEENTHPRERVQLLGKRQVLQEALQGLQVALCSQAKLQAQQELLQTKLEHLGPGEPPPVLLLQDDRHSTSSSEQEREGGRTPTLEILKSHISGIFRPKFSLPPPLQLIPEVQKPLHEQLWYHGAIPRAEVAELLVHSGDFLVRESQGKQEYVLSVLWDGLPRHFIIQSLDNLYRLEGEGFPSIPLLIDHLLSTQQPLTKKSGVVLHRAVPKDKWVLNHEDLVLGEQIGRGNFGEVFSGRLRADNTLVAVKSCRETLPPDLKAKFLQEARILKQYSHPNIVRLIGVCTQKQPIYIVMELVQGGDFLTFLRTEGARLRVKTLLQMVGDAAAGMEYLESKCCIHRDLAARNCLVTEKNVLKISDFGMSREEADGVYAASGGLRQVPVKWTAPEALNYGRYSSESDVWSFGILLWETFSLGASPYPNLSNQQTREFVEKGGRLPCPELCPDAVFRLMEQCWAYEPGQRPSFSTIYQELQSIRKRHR
Sequence of Hck (P08631 whole entry, looked up): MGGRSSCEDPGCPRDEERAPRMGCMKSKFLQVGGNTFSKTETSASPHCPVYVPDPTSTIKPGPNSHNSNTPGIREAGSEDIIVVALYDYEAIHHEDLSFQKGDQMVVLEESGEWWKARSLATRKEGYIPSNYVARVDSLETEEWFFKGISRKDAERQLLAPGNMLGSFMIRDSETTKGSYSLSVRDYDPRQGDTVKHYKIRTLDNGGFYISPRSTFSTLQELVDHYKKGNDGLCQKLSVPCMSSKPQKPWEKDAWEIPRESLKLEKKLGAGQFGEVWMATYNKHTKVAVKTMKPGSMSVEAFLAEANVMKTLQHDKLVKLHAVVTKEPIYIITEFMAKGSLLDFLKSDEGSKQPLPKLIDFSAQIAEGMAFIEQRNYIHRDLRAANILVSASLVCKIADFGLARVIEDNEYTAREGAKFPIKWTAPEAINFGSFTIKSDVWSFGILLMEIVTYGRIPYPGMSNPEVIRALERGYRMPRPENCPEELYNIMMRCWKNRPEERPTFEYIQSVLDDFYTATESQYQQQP
Sequence of FGFR3 (P22607 whole entry, looked up): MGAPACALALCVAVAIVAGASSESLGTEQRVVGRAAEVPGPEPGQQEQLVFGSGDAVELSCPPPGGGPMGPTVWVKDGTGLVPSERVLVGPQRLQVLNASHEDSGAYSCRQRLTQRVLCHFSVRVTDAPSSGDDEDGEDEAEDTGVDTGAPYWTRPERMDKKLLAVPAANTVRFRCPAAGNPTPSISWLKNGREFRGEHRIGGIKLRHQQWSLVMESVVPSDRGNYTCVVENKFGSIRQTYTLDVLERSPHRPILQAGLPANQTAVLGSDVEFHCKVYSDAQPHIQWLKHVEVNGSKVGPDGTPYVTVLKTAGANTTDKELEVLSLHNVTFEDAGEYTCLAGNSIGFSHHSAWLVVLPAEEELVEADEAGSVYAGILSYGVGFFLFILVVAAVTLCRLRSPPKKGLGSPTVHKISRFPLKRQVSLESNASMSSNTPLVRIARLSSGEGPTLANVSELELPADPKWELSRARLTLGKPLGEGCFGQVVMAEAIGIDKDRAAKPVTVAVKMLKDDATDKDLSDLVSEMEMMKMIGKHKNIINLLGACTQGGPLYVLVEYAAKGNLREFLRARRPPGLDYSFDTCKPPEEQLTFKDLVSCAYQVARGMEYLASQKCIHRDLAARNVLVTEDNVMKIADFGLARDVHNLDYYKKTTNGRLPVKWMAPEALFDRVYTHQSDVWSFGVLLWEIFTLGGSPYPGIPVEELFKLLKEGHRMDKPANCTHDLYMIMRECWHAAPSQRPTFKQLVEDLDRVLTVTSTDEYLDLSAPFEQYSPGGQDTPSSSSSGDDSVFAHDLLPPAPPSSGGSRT

Sequence	SH2 binding enrichment [1]	SH2 binding enrichment [2]	SH2 binding enrichment [3]	phosphorylation enrichment [4]	phosphorylation enrichment [5]	phosphorylation enrichment [6]	phosphorylation enrichment [7]	phosphorylation enrichment [8]	phosphorylation enrichment [9]	phosphorylation enrichment [10]	phosphorylation enrichment [11]	phosphorylation enrichment [12]	phosphorylation enrichment [13]	phosphorylation enrichment [14]	phosphorylation enrichment [15]	phosphorylation enrichment [16]
CGTPTYLAPEV [CHEK2_Y390]	0.785	0.582	0.878	0.639	1.18	1.12	1.9	7.74	1.39	1.04	2.38	0.776	0.564	1.34	0.627	0.816
LYSGDYYRIQG [DDR2_Y740]	0.531	0.984	1.02	10.5	29.2	32.7	23.8	7.77	30.3	26	7.93	10.4	1.81	1.83	11.5	19.3
DRSSLYLVAGP [KIAA1614_Y1083_N1078D]	0.685	0.519	0.781	0.749	0.709	0.593	1.08	0.652	0.833	0.665	1.25	0.842	0.615	1.13	0.523	1.33
LVMFFYAIFGM [SCN1A_Y1684_I1683F]	2.64	1.44	1.58	0.524	0.608	0.898	1.06	0.937	0.566	1.34	1.35	0.446	0.708	1.23	0.789	0.84

More lines, main results first:

SH2 binding enrichment [1]	SH2 binding enrichment [2]	SH2 binding enrichment [3]	Sequence	phosphorylation enrichment [4]	phosphorylation enrichment [5]	phosphorylation enrichment [6]	phosphorylation enrichment [7]	phosphorylation enrichment [8]	phosphorylation enrichment [9]	phosphorylation enrichment [10]	phosphorylation enrichment [11]	phosphorylation enrichment [12]	phosphorylation enrichment [13]	phosphorylation enrichment [14]	phosphorylation enrichment [15]	phosphorylation enrichment [16]
0.818	0.606	0.893	SSVKLYRVYCD [FGB_Y266_P265L]	0.525	0.618	0.459	0.955	0.718	0.634	0.728	1.06	0.603	0.531	1.22	0.479	0.459
1.48	1.13	1.06	SDYYAYSPVRE [H6PD_Y449]	7.18	17.5	16.3	11.2	12.9	23.7	14.8	6.22	8.79	12.9	0.832	9.64	10.7
1.27	1.58	0.955	QRRNVYYYSYL [PTEN_Y176_Y174N]	8.15	5.79	16.4	8.42	1.15	3.05	11.6	1.72	7.54	2.77	1.41	9.83	16
1.92	0.908	0.983	SIYKDYYRYNF [PLA2G2D_Y85]	4.42	5.65	13.6	8.28	5.64	5.61	11.1	1.39	3.09	1.32	0.918	4.34	5.06
